Experimental data taken from paper PMC9646525, “Cryo-EM structure of the SEA complex” (Nature, 2022).

T1: Sea2 (S. cerevisiae (endogenous in yeast …, UniProt Q08281 1-1341))
T1 construct: Sea2, S. cerevisiae, endogenous subunit of the SEAC (SEACAT, core); Native protein of the purified complex; two copies in the SEAC; source: endogenous, yeast cells expressing Sea4-TAP; in lysate and co-purified with Sea4-TAP (IgG Dynabeads, TEV elution)
T1 sequence (looked up): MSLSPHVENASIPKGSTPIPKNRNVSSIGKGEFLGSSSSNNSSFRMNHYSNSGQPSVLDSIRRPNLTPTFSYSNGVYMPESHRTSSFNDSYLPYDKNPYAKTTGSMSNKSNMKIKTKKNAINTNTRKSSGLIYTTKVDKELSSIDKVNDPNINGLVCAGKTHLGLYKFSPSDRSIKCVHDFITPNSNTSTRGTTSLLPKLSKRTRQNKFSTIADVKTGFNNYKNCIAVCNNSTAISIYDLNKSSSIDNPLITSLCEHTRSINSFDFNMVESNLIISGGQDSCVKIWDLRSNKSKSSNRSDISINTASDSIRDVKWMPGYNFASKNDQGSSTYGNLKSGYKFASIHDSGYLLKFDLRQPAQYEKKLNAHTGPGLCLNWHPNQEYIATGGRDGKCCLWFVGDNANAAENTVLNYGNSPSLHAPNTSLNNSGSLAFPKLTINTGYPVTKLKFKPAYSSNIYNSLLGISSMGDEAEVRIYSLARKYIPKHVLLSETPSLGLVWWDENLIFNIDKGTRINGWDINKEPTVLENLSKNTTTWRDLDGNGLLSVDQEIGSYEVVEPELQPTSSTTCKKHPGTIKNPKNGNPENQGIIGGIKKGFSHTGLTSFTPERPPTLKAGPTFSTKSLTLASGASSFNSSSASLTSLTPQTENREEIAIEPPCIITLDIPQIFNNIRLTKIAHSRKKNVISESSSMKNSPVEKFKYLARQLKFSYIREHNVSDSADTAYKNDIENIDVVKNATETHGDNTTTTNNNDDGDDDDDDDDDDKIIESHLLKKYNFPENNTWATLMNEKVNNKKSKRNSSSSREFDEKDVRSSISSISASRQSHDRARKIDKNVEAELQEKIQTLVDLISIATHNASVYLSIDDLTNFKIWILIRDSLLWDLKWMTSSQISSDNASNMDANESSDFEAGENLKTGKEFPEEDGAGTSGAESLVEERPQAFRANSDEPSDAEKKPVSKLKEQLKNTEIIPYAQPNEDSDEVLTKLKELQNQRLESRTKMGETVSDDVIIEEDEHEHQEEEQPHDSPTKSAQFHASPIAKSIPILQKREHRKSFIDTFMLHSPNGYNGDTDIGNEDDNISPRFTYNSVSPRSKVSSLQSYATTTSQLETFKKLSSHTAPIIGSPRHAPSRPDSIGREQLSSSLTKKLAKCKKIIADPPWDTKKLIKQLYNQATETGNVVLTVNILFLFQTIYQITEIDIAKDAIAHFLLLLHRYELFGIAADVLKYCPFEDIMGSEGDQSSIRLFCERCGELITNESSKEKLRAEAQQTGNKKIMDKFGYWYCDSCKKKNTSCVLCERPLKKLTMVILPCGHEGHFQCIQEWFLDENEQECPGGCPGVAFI

B1: Npr2 (natural protein, UniProt P39923 1-615, looked up)
chain: MLSYFQGFVPIHTIFYSVFHPTEGSKIKYEFPPNNLKNHGINFNTFKNYIIPKPILCHKLITFKYGTYRIVCYPVTINSPIYARNFFSFNFVFVFPYDCETSPYEPAITRLGKMFKVLEEQNQLLSKSERDPVFFDLKVLENSTTTPSTAGPSSTPNPSSNTTPTHPTSEKDTKDMRSSRYSDLIKDLGLPQSAFSIQDLLMRIFQDLNNYSECLIPIDEGNAVDIKIFPLLRPPTTCVSLEDVPLSSVNLKKIIDVNWDPTMMSIVPYIDGLNSIAKISKLSNSDPGLVIECIRHLIYYKCVTLSDIFQFSNIYAPSSLIRNFLTDPLMASDCQSYVTFPEVSKISNLPLNKSLGSGDQDSPSFSVRRKSKSSSIPSNPDSRTTSFSSTSRVSQNSSLNSSFSSIYKDWRQSQTSCSSSNIHVINNRNRFLPTRSCLFDLYRSLSQGQTLKTWYESKYMILKENNIDIRRFITFGLEKRIIYRCYSFPVMINAGSREPKEMTPIITKDLVNNDKLLEKRNHNHLLSATGSRNTAQSGNLKPERPSKVSFEMQRVSSLATGKSTMPKLSDEEEGILEESIRNAETFDKICVLLSKPKLEVESYLNELGEFKVINS
notes: Npr2, S. cerevisiae, endogenous subunit of the SEAC (SEACIT, wing); Native protein of the purified complex; two copies in the SEAC; source: endogenous, yeast cells expressing Sea4-TAP or Sea1-TAP; in lysate and co-purified with the tagged subunit (IgG Dynabeads, TEV elution)
B2: Sec13 (natural protein, UniProt Q04491 1-297, looked up)
chain: MVVIANAHNELIHDAVLDYYGKRLATCSSDKTIKIFEVEGETHKLIDTLTGHEGPVWRVDWAHPKFGTILASCSYDGKVLIWKEENGRWSQIAVHAVHSASVNSVQWAPHEYGPLLLVASSDGKVSVVEFKENGTTSPIIIDAHAIGVNSASWAPATIEEDGEHNGTKESRKFVTGGADNLVKIWKYNSDAQTYVLESTLEGHSDWVRDVAWSPTVLLRSYLASVSQDRTCIIWTQDNEQGPWKKTLLKEEKFPDVLWRASWSLSGNVLALSGGDNKVTLWKENLEGKWEPAGEVHQ
notes: Sec13, S. cerevisiae, endogenous subunit of the SEAC (SEACAT, core); Native protein of the purified complex; two copies in the SEAC; source: endogenous, yeast cells expressing Sea4-TAP; in lysate and co-purified with Sea4-TAP (IgG Dynabeads, TEV elution)
B3: Sea3 (natural protein, UniProt Q03897 1-1148, looked up)
chain: MCSSINEGPYNSPTFGKSLSLKVDGGFNAVSINPSGRDIVLASRQGLYIIDLDDPFTPPRWLHHITPWQVADVQWSPHPAKPYWIVSTSNQKAIIWNLAKSSSNAIEFVLHGHSRAITDINFNPQHPDVLATCSVDTYVHAWDMRSPHRPFYSTSSWRSAASQVKWNYKDPNVLASSHGNDIFVWDLRKGSTPLCSLKGHVSSVNSIDFNRFKYSEIMSSSNDGTVKFWDYSKSTTESKRTVTTNFPIWRGRYLPFGEGYCIMPMVGGNNAVYLINLCDDDDSEQNKKTKLQPIYAFKGHSDRVIDFLWRSRHTCDGDYDDREFQLVTWSKDCDLKLWPISDSIYGKVNFDRGKRLEEKLPDYDYCSYNKEPENRENVQKNEFRRLRENFVTTSGLKKNKTNHITWLSGIRMNSATSQEDLFNETKIQNLGEEVSAIGHKFPKVVFEKISVSTRELCLTLNGPWSEENPDDYIFLRISINFPLNYPNKGDPPKFTIEENSNLTMSKRQEILSNLATIGQKYTDSNLYCLEPCIRFVLGEKVSLEDIEEGQEPLLNFDIADHIDFEELSSLDSSYSDSQNPENLSSQSDIESYKEALVFPDTSNQGLDFGRNLALDTTPVPNGCGSCWTATGELFCFFANEKKPEKKQNAIIKLSQKEAGVEKHPFKIEPQVLYDKEVDSSVITAADELKARPKRYVDTLGLGGGTNGDSRTYFDDETSSDDSFDSVADDWDDILRNDIIVRTKIPILRGNFKAFSSVHSESGKTVESTKKNKNLVISKNFSSLLSDRKELALEYLFMDATPEGFARNNALVAEKFDLDEISHCWQILSDMLIDQSDYDPYTTIWNNHPMGIKWFIKEAIVYFERQQNLQMLAMLCCVILSARRKKIPARYYGQELENMEGTIVFNDNESQNTSFWKGSDAFSTRSRSSTVTPNFYGNHLRGKNIHGGDNSSIRSDDHHARLRTHNTLNGSSKFTEPAQKQGSRAISSSPFHSRMPDIKVELLHDDIIEAYEQEDLLHLEVSDIPKFQTYIYQYSKLLFRWGLPLERVKILKVSTDFRSSYSSQGIPPNNNKKSPYNGVLTHWIENNEFGEEKFLARNCNYCDLRVTRSSFICGNCQHVLHSSCARIWWEIGDECPSGCGCNCPEMFDA
notes: Sea3, S. cerevisiae, endogenous subunit of the SEAC; Sea3^SIP (Sea3^Nter) lies in the wing, Sea3^SAP (Sea3^Cter) in the core; Native protein of the purified complex; two copies in the SEAC; source: endogenous, yeast cells expressing Sea4-TAP; in lysate and co-purified with Sea4-TAP (IgG Dynabeads, TEV elution)

Columns and labels:
Test in all cases: cryo-EM structure; endogenous SEAC purified from yeast via Sea4-TAP (IgG Dynabeads, TEV elution in 20 mM HEPES-NaOH pH 7.4, 300 mM NaCl, 2 mM DTT), on graphene-oxide-coated grids
Conditions in all cases: both partners purified
[1] = biological target: T2, Sea1 (S. cerevisiae (endogenous in yeast …, UniProt P47170 1-1584))
T2 construct: Sea1 (Iml1), S. cerevisiae, endogenous subunit of the SEAC (SEACIT, wing); Native protein of the purified complex; two copies in the SEAC; also called Iml1; Sea1/Iml1; source: endogenous, yeast cells expressing Sea4-TAP; in lysate and co-purified with Sea4-TAP (IgG Dynabeads, TEV elution)

[2] = biological target: B3
[3] = biological target: T1, Sea2

T2 sequence (P47170 whole entry): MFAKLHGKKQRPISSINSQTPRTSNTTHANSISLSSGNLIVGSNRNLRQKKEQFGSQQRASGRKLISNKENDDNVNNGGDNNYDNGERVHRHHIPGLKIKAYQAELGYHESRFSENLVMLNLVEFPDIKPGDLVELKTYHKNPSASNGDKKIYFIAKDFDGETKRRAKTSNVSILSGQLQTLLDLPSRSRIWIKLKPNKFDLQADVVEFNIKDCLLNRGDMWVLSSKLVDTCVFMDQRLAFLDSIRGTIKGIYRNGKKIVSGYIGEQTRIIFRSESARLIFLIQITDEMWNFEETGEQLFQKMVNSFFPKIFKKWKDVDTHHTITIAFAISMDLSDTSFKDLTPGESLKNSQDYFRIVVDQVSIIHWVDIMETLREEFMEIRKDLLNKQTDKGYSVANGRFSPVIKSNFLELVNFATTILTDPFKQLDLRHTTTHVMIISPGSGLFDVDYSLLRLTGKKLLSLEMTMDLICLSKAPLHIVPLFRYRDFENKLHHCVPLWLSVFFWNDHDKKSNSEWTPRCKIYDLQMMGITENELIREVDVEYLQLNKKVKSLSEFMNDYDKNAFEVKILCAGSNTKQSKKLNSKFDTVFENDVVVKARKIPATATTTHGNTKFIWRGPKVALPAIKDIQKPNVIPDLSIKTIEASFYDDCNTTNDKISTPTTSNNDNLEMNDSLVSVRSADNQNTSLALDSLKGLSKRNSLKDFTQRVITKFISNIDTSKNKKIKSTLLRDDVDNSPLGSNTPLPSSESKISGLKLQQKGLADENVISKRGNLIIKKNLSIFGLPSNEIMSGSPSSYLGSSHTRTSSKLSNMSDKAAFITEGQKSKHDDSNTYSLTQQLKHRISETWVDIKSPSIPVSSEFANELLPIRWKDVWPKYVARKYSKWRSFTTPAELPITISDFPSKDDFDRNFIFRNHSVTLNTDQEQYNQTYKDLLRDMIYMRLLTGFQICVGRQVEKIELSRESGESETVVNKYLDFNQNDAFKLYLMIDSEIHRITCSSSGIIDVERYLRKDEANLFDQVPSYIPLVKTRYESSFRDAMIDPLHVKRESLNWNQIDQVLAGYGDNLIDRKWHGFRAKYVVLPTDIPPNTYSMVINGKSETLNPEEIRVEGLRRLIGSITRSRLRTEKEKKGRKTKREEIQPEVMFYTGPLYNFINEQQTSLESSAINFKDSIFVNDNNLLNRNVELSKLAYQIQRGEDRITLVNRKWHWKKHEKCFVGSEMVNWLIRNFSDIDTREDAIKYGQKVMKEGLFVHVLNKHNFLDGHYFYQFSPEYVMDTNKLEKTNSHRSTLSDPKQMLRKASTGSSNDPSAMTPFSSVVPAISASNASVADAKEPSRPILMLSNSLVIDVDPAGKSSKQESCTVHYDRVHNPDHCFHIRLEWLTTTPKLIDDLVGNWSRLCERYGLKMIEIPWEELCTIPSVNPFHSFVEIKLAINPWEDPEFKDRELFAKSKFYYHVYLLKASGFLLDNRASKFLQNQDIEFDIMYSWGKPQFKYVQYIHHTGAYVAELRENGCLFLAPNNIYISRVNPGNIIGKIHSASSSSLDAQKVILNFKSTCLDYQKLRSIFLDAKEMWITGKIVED

B1
binding result [1]: binds
binding result [2]: binds

B2
binding result [2]: binds

B3
binding result [1]: binds
binding result [3]: binds
